Laboratory results published in patent US10745460B2, “Peptides and combination of peptides for use in immunotherapy against various tumors” (Immatics Biotechnologies GmbH, priority 2015, dated 2020).

Target: HLA-A*02:01 (Homo sapiens, UniProt P04439, D140Y/D185E/D98H/E176V/E277Q/G131W/G231S/I119V/I121R/I166T/I218V/L300P/L318F/N151K/N90K/P208A/P217A/Q86G/Q94H/R138H/R169H/T345S)
Assay: MHC binding assay: UV-ligand exchange with β2m ELISA (peptide exchange yield)
Details: binding to HLA-A*02:01 evaluated by peptide exchange yield (UV-ligand exchange, β2m ELISA)
Text: Candidate peptides for T cell based therapies according to the present invention were further tested for their MHC binding capacity (affinity). The individual peptide-MHC complexes were produced by UV-ligand exchange, where a UV-sensitive peptide is cleaved upon UV-irradiation, and exchanged with the peptide of interest as analyzed. Only peptide candidates that can effectively bind and stabilize the peptide-receptive MHC molecules prevent dissociation of the MHC complexes. To determine the yield of the exchange reaction, an ELISA was performed based on the detection of the light chain (β2m) of stabilized MHC complexes. The assay was performed as generally described in Rodenko et al. (Rodenko et al., 2006).
96 well MAXISorp plates (NUNC) were coated over night with 2 ug/ml streptavidin in PBS at room temperature, washed 4× and blocked for 1 h at 37° C. in 2% BSA containing blocking buffer. Refolded HLA-A*02:01/MLA-001 monomers served as standards, covering the range of 15-500 ng/ml. Peptide-MHC monomers of the UV-exchange reaction were diluted 100 fold in blocking buffer. Samples were incubated for 1 h at 37° C., washed four times, incubated with 2 ug/ml HRP conjugated anti-β2m for 1 h at 37° C., washed again and detected with TMB solution that is stopped with […]. Absorption was measured at 450 nm. Candidate peptides that show a high exchange yield (preferably higher than 50%, most preferred higher than 75%) are generally preferred for a generation and production of antibodies or fragments thereof, and/or T cell receptors or fragments thereof, as they show sufficient avidity to the MHC molecules and prevent dissociation of the MHC complexes.

| Peptide exchange | Substance |
| --- | --- |
| ++++ (≥75% = ++++) | 84 (FLLEREQLL; listed as Homo sapiens) [compound 84] |
| ++ (≥20% = ++) | 85 (KLLDKPEQFL; listed as Homo sapiens) [compound 85] |
| +++ (≥50 = +++) | 86 (SLFSNIESV; listed as Homo sapiens) [compound 86] |
| +++ (≥50 = +++) | 87 (KLLSLLEEA; listed as Homo sapiens) [compound 87] |
| +++ (≥50 = +++) | 88 (LLLPLELSLA; listed as Homo sapiens) [compound 88] |
| +++ (≥50 = +++) | 89 (SLAETIFIV; listed as Homo sapiens) [compound 89] |
| ++ (≥20% = ++) | 90 (AILNVDEKNQV; listed as Homo sapiens) [compound 90] |
| ++ (≥20% = ++) | 91 (LLPSIFLMV; listed as Homo sapiens) [compound 91] |
| ++++ (≥75% = ++++) | 92 (RLFEEVLGV; listed as Homo sapiens) [compound 92] |
| ++ (≥20% = ++) | 93 (RLYGYFHDA; listed as Homo sapiens) [compound 93] |
| +++ (≥50 = +++) | 94 (YLDEVAFML; listed as Homo sapiens) [compound 94] |
| +++ (≥50 = +++) | 95 (KLIDEDEPLFL; listed as Homo sapiens) [compound 95] |
| ++ (≥20% = ++) | 96 (ALDTTRHEL; listed as Homo sapiens) [compound 96] |
| +++ (≥50 = +++) | 97 (KLFEKSTGL; listed as Homo sapiens) [compound 97] |
| +++ (≥50 = +++) | 98 (FVQEKIPEL; listed as Homo sapiens) [compound 98] |
| +++ (≥50 = +++) | 99 (TLFGIQLTEA; listed as Homo sapiens) [compound 99] |
| +++ (≥50 = +++) | 100 (ALQSFEFRV; listed as Homo sapiens) [compound 100] |
| +++ (≥50 = +++) | 101 (SLLEVNEASSV; listed as Homo sapiens) [compound 101] |
| +++ (≥50 = +++) | 102 (GLYPVTLVGV; listed as Homo sapiens) [compound 102] |
| ++ (≥20% = ++) | 103 (YLADTVQKL; listed as Homo sapiens) [compound 103] |

| Peptide exchange | Substance |
| --- | --- |
| ++ (≥20% = ++) | 105 (AMLASQTEA; listed as Homo sapiens) [compound 105] |
| ++ (≥20% = ++) | 106 (VLLGSVVIFA; listed as Homo sapiens) [compound 106] |
| ++ (≥20% = ++) | 107 (RVLPGQAVTGV; listed as Homo sapiens) [compound 107] |
| +++ (≥50 = +++) | 108 (FIANLPPELKA; listed as Homo sapiens) [compound 108] |
| +++ (≥50 = +++) | 109 (ILGSFELQL; listed as Homo sapiens) [compound 109] |
| ++ (≥20% = ++) | 110 (QIQGQVSEV; listed as Homo sapiens) [compound 110] |
| +++ (≥50 = +++) | 111 (AQLEGKLVSI; listed as Homo sapiens) [compound 111] |
| +++ (≥50 = +++) | 112 (ILAQDVAQL; listed as Homo sapiens) [compound 112] |
| ++ (≥20% = ++) | 113 (FLFLKEVKV; listed as Homo sapiens) [compound 113] |
| ++ (≥20% = ++) | 114 (LLFPSDVQTL; listed as Homo sapiens) [compound 114] |
| ++ (≥20% = ++) | 115 (ILHGEVNKV; listed as Homo sapiens) [compound 115] |
| ++ (≥20% = ++) | 116 (ALLSSVAEA; listed as Homo sapiens) [compound 116] |
| ++ (≥20% = ++) | 117 (TLLEGISRA; listed as Homo sapiens) [compound 117] |
| ++ (≥20% = ++) | 119 (SLIEESEEL; listed as Homo sapiens) [compound 119] |
| ++ (≥20% = ++) | 121 (ALYVQAPTV; listed as Homo sapiens) [compound 121] |
| +++ (≥50 = +++) | 122 (SIIDTELKV; listed as Homo sapiens) [compound 122] |
| + (≥10% = +) | 123 (QTAPEEAFIKL; listed as Homo sapiens) [compound 123] |
| ++ (≥20% = ++) | 124 (ALLLRLFTI; listed as Homo sapiens) [compound 124] |
| +++ (≥50 = +++) | 125 (AALEVLAEV; listed as Homo sapiens) [compound 125] |
| +++ (≥50 = +++) | 126 (QLREAFEQL; listed as Homo sapiens) [compound 126] |

| Peptide exchange | Substance |
| --- | --- |
| ++ (≥20% = ++) | 128 (SILTNISEV; listed as Homo sapiens) [compound 128] |
| ++ (≥20% = ++) | 129 (KMASKVTQV; listed as Homo sapiens) [compound 129] |
| +++ (≥50 = +++) | 130 (QLYGSAITL; listed as Homo sapiens) [compound 130] |
| +++ (≥50 = +++) | 131 (SLYPHFTLL; listed as Homo sapiens) [compound 131] |
| +++ (≥50 = +++) | 132 (ALLNNVIEV; listed as Homo sapiens) [compound 132] |
| ++ (≥20% = ++) | 133 (FLDGRPLTL; listed as Homo sapiens) [compound 133] |
| ++ (≥20% = ++) | 134 (SLYKSFLQL; listed as Homo sapiens) [compound 134] |
| +++ (≥50 = +++) | 136 (LLWDAPAKC; listed as Homo sapiens) [compound 136] |
| ++ (≥20% = ++) | 137 (KLIYKDLVSV; listed as Homo sapiens) [compound 137] |
| ++ (≥20% = ++) | 138 (GIINKLVTV; listed as Homo sapiens) [compound 138] |
| +++ (≥50 = +++) | 139 (IILENIQSL; listed as Homo sapiens) [compound 139] |
| +++ (≥50 = +++) | 140 (FLDSQITTV; listed as Homo sapiens) [compound 140] |
| ++ (≥20% = ++) | 141 (NIDINNNEL; listed as Homo sapiens) [compound 141] |
| ++ (≥20% = ++) | 142 (LLDAAHASI; listed as Homo sapiens) [compound 142] |
| +++ (≥50 = +++) | 143 (MLWESIMRV; listed as Homo sapiens) [compound 143] |
| +++ (≥50 = +++) | 144 (FLISQTPLL; listed as Homo sapiens) [compound 144] |
| +++ (≥50 = +++) | 145 (ALEEKLENV; listed as Homo sapiens) [compound 145] |
| ++ (≥20% = ++) | 146 (VVAAHLAGA; listed as Homo sapiens) [compound 146] |
| +++ (≥50 = +++) | 147 (GLLSALENV; listed as Homo sapiens) [compound 147] |
| +++ (≥50 = +++) | 148 (YLILSSHQL; listed as Homo sapiens) [compound 148] |
